# Measurements taken from the DeepSol protein solubility set.
# Test: soluble on expression in E. coli; label from the status in PepcDB or PDB records
row,Sequence,soluble on expression in E. coli
1,MQEQIQEYAKRLKLSWIRENYREVEAANTEEYLLKLFEKEIEQREERKINLLFKAATLPNVSGKPFDWKDIQLGQGLSQQSLLDGEFIESKENMVFYGGVGAGKTYLSTLIGMNAIQKYGKRVKFYTIASLANELLEANDKGNLNKLFKKIEKLDLLILDELGYIPLHKHGAELLFQVISLCYEKRSIIITTNLQFGQWNHVFGDPILTEAVVDRLIHHSHLVIFGGDSNRMKKSFLLNNMLEHHHHHH,soluble
2,MQFNPGFSSLAALLADPGRAQMIWALMDGSARPASELALLAGVSPSSASGHLGRLVEGGVLSLEARGRNRFYRLAGPEVGQAVEALASASLALQPQRRSLPPSHGTPSALREARTCYDHLAGELAVGVFARMLDAGWIEQEGRTLRLSATGEAGLAGLGIDLAEVRRRRRQFACACPDWSERKPHLGGALGAALLEACLRQGWLRPQDGSRALQVSSKGRAGLRGLAERTAG,not soluble
3,MQGRVKWFNAEKGFGFIEREDGDDVFVHFSAIQQDGYKSLEEGQQVEFDIVDGARGPQAANVVKL,not soluble
4,MQGTKIRLMVGGLLLAAASNNVQAEALQPDPAWQQGKLDNGFSWQLLATPQRPSDRIELRLIVNTGSLSENTQEVGFAHLLPRLALMSSASFTPAQLQSLWQQGIDNERPLPPAITSYDFTLYSLSLPNNRPDLLKDALAWLSDTAGNLAVSEQTVNAALNTATDPIATFPQNIQEPWWRYRLKGSSLIGHDPGQPVTQPVDVEKLKQFYQQWYTPDAMTLYVVGNVDSRSIAAQISKAFSELKGKRTAPAAVATLAPLPPEPVSLMNEQAAQDTLSLMWDTPWHPIQDSMALSRYWRSDLAREALFWHIKQVLEKNNQKNLKLGFDCRVQYQRAQCAIHLNTPVENLTANMTFVARELAALRANGLSQAEFDALMTQKNDQLSKLFATYARTDTDILMSQRLRSQQSGVVDIAPEQYQKLRQAFLSGLTLAELNRELKQQLSQDTTLVLMQPKGEPEVNVKALQEIYNGIMAPQTVAEEEVAPAEAVETAPVMPTTAQ,not soluble
5,MQHSLGLIEVSGMSLAITVADVMAKTAQIRLIGVERTIGSGWMLVKIAGDVAAVRTALSAGEETARAHQGFVACTTIARPAKGTGELVSTTKPPRAEPVQKITVLPAVALTASAAHTTTGPESVQEDPDAEKAVPPIREAVEGSTGNIIQVDAINDPVETAREISKPNASAKSPPAEYGEKQSVATVKAFPVMGDIATDLDIPTASARSVAVAQQVKPGISLHQFHYQEKPDDETADAGSQQTGETKQAVAISAKLLVTCKICGDPSCPRHKGQPRSRCIHNQKSVLR,not soluble
6,MQHSLRSDGAGFYQLACCEYSLSMRKIALSGGFWGGVCRMAMKSIFFMFHQGNRRLTLTAVQGILLRFSLF,not soluble
7,MQIDDALLQRLEKLSMLEIKDEHKESVKGHLAEVLGFVENIFALETSALKTDIELCTPLREDEPKSQPNTAKEILSQNKHSQDHYFVVPKIIE,not soluble
8,MQILKAIGLLMEYPDDELWECRDEALTLIQHDAPMLADFTRELLYAPLLDKQAEWCEVFDRGRATSLLLFEHVHAESRDRGQAMVDLLSQYETVGLHLNCRELPDHLPLYLEYLSVLPEAEAREGLQNIAPILALLGGRLKQRGAPWYQLFDALLTLAGSTLTSDSVTKQIIQESRDDTRQALDAVWEEEQVKFIEDNATTCDSSPLHHYQRRFSQDAAPQYVDVSAGGPK,not soluble
9,MQITSNTRLNELWELYFQTLDKSTSWTFTKESFYNRYLKEPLGKKKLDSIQEHHIMAIIRHLQAEGMATRTVNTTLEILRPLFDFAIKNKALRDNPTRFIVLKKDNLEHHHHHH,not soluble
10,MQIVEAIYEDGVLKLLKNLKLKEHSKVIIKVIDEEEIEKILDSRDYLEHHHHHH,not soluble
11,MQIYTADGKLIGEVGEQRRIPVKLADVPQRLIDAFLATEDSRFYDHHGLDPIGIARALFVAVSNGGASQGASTITQQLARNFFLTSEKTIIRKAREAVLAVEIENTLNKQEILELYLNKIFLGYRSYGVAAAAQTYFGKSLNELTLSEMAIIAGLPKAPSTMNPLYSL,not soluble
12,MQKALETKRLTLSYGETIIIDELNLEIPKGEITIFIGSNGCGKSTLLRSLARLLKPTTGDILLDNQAIQSMQTKQIARQMAILPQGPQAPEGLTVLQLVKQGRYPYQTWLKQWSEKDEEMVQNALAATGMTEFAERDVHALSGGQRQRAWIAMTLAQDTDIILLDEPTTYLDMTHQIEVLDLLFELNETEQRTIVMVLHDLNLACRYADNIVAIQDKQIYAQGKPEEVVDEKLVRDVFRMECQISTDPLFGTPLCIPHGKGRRVRKEVAHAMR,not soluble
13,MQKDALNNVRITDEQVLMTPEQLKAAFPLSLAQEAQIAQSRGIISDIIAGRDPRLLVVCGPCSIHDPETALEYARRFKALAAEVSDSLYLVMRVYFEKPRTTVGWKGLINDPHMDGSFDVEAGLKIARQLLVELVNMGLPLATEALDPNSPQYLGDLFSWSAIGARTTESQTHREMASGLSMPVGFKNGTDGSLATAINAMRAAAQPHRFVGINQAGQVALLQTQGNPHGHVILRGGKAPNYSPADVAQCEKEMEQAGLRPSLMVDCSHGNSNKDYRRQPAVAESVVAQIKDGNRSIIGLMIESNIHEGNQSSEQPRSEMKYGVSVTDACISWEMTDALLREIHKDLSGQLAVRVA,not soluble
14,MQKHWWHKATVYQIYPKSFMDTNGDGIGDLKGITSKLDYLQKLGVMAIWLSPVYDSPMDDNGYDIANYEAIADIFGNMADMDNLLTQAKMRGIKIIMDLVVNHTSDEHAWFIEAREHPDSSERDYYIWCDQPNDLESIFGGSAWQYDDKSDQYYLHFFSKKQPDLNWENANLRQKIYDMMNFWIDKGIGGFRMDVIDMIGKIPAQHIVSNGPKLHAYLKEMNAASFGQHDLLTVGETWGATPEIAKQYSNPVNHELSMVFQFEHIGLQHKPEAPKWDYVKELNVPALKTIFNKWQTELELGQGWNSLFWNNHDLPRVLSIWGNTGKYREKSAKALAILLHLMRGTPYIYQGEEIGMTNYPFKDLNELDDIESLNYAKEAFTNGKSMETIMDSIRMIGRDNARTPMQWDASQNAGFSTADKTWLPVNPNYKDINVQAALKNSNSIFYTYQQLIQLRKENDWLVDADFELLPTADKVFAYLRKVREERYLIVVNVSDQEEVLEIDVDKQETLISNTNESAALANHKLQPWDAFCIKILEHHHHHH,soluble
15,MQKIDLGNNESLVCGVFPNQDGTFTAMTYTKSKTFKTETGARRWLEKHTVS,soluble
16,MQLKTEVFLVEKEILVYIQTKSIGIEDNSIKLKMTPLLKKFANIGDKVYLKHSTFMLPTKIKAKKEDEVLLEFPSLTPEKPLGDRRNVRVLSDPENPVKVRFNEITKEVYDISEVGFSIKCGMEEIDEILKNKEISEVEIYLPNLEEWIKGSARLVNVREFENGDILCGYELFLDTPDEVKVRFYIYERVKEILKGEK,not soluble
17,MQLNDSTLFRQQAFIDGDWRDARGGDVIPVSNPANGKPLGNVPKMGAEETRDAINAANRALPAWRALTAKERANILRRWFNLMMEHQDDLARLMTLEQGKPLAEAKGEISYAASFIEWFAEEGKRIYGDTIPGHQADKRLLVIKQPIGVTAAITPWNFPSAMITRKAGPALAAGCTMVLKPASQTPFSALALAELAQRAGIPAGVFNVVTGSAGDIGGELTSNPLVRKLSFTGSTEIGRQLMEQCAKDIKKVSLELGGNAPFIVFDDADLDKAVEGALASKFRNAGQTCVCANRLYVQDGVYDRFAEKLNQAVNKLAVGDGLQADVAIGPLIDEKAVAKVQEHIADALEKGARVITGGEAHKLGGNFFQPTILADVPDNAKVAKEETFGPLAPLFRFSDEADVIRQANDTEFGLAAYFYARDLSRVFRVGEALEYGIVGINTGIISNEVAPFGGIKASGLGREGSKYGIEDYLEIKYMCIGL,not soluble
18,MQLPPVHSVSLSEYFVSGNVIIHETAVIAPGVILEAAPDCQITIEAGVCIGLGSVISAHAGDVKIQEQTAIAPGCLVIGPVTIGATACLGSRSTVFQQDIDAQVLIPPGSLLMNRVADVQTVGASSPTTDSVTEKKSPSTANPIAPIPSPWDNEPPAKGTDSPSDQAKESIARQSRPSTAEAAEQISSNRSPGESTPTAPTVVTTAPLVSEEVQEKPPVVGQVYINQLLLTLFPERRYFSS,not soluble
19,MQLTKLTQEIFDHLYRDISEFRQTFDLPVAAPQTLNSQADTLHTSLAIEELTELAQADNKTEQADAIVDTVYVLMGRLVHLGHAKVEDNLAISYLIDLLLHVAANLNIDFLPCWDEVHSSNMSKVCRSEQEYLDTEKFYAEQGVKLMAVHQGEYIIAKCAEDFISESKTVRQGKVLKSVYYRPANLAALTQ,not soluble
20,MQMLIPQRLLLILNPILMMKRKKRKKRKKRRERETMMKIPRILKKLRRKRRTRRKRRKRRKRRRRKRRKRRRKRSPRKRRKRRNKDAFYILIISDPSRSLLFGFRKFSIIIQCLTYFSFHILFHNL,soluble
21,MQNNVVDSIIIDVLSASTHEKPLCKVITEERVLKLLDLALGVFKAQKPMVEVNAPIKVCGDIHGQFPDLLRLFHRGGWPPTANYLFLGDYVDRGRFSIETIVLLLAYKVKFPCNFFLLRGNHECEFVNKTYGFYEECQKRYQSVRMYAAFQDVFNWLPLTGLIATKILCMHGGLSPLMTKEFTLDTLRKIERPTEGKEGLVADLLWADPISGLSGFMNNQRGAGCGFGRDSVLNLCSEFQLDLVCRAHQVVQDGYEFFAGRKLVTIFSAPHYCGQFDNCAAFMSCDEKLQCSFEILRPTTGRLEIREKPLLKDETN,not soluble
22,MQNYSVSVTSDRPAPFQQITIPLADGTVLHARLWLPQTPLADRVPLVLEWIPYRQSDGTALADSMMHGYFAEQGIAAARVDIRGSGNSDGLLHDEYLKQEQDDACEVIAWFARQDWCNGNVGLIGISWGGFAGLQIAARRPPALKCIITACSTDNRYTDDVHYMGGALLSDGMQWGSGLFAQLGRPADPKHVGDRWREMWMNRLEGIKEPPLATWMQHTTYDDFWKHGSVCEDYDEIQCAVWAVGGWVDGYTDPILRLMEKLSVPKKALIGPWTHMYPTWGQPGPQIGFLQEAMRWWRHWLMDEDTGIMDEPQLTLWLGKDPKPDTRAPDIGGRWIGLP,not soluble
23,MQQLREGAPADVFISADKKNMDKALADGTVGSSVKVATNSMVMVVPQGNPGKVTSVSDLAGKTVVLCDVQVPCGTISKKLQDANGVEIKAASLESSVSDVLGKVVSGEADAGWVYRTDAAAAGNKVEVIDIPHAQEFENSLYAAVSTHSTSPDEAQKLLDLIVSPKMAQVWKDHGFSPAQ,not soluble
24,MQQNIQYTYSSDPRSGGNQNQQLHGISQFQQNSYQPTTYSNSNANNFHSSNSATFIPNSVTQTPQRRMGEEKSLVNMLDAYFIDSTTPSTSTSWNNQQPVQMSSIQQSVGSYNQQIPQLKVGDVDLQVEGMNVKLSSSPDKGEKDRVKKARQAEAARMRYHRLSNEEKRELNLKRTLAQKRKRQREKEMEELESILRETNDIQEDPDITEQLREKRMRAKWAEAARTRYARMTPEERRAHNTRRRMRQMQNAMSAIKACGMATGDPQKDDEAVRLHIKTQNAKKAEAARQRYHRMNDDEKRVYNQRRTEAFRRRRMEEEMLLAMPIGRINGEALDRAQQIVVRNAKRAEAARLRYQRMTPDQRKVAKQEPKEESWPSHEQSDTQIDHDLDLGDSYNQKRYTPKRRRNEMDDMISAGQMAVGSSGTITMGTGTPAKKDDMDALSSLERDVVKRTQHAQQILLRQRANQSSGTPRSVTPPPQAYIISNGQQQHQQLVGNQGNNGIGQHQVLHQGHMQQQQIQVSHQQSSQSIPQNIYTSGMIIQNQGQQQQGQQQQQGQSQQILNNPYRT,not soluble
